# Residue numbers refer to the chain shown, from its start.
# B1: trypsin variant SEQ ID NO: 52 (protein)
# chain: IVGGYTCAANSIPYQVSLNSGSHRCGGSLINSQWVVSAAHCYKLRIQVRLGEHNIDVLEGNEQFINAAKIITHPNFNGNTLDNDIMLIKLSSPATLNSRVATVSLPRSCAAAGTECLISGWGNTKSSGSSYPSLLQCLKAPVLSDSSCKSSYPGQITGNMICVGFLEGGKDACQGDSGGPVVCNGQLQGIVSSGYGCAQKNKPGVYTKVCNYVNWIQQTIAAN
# B2: trypsin variant SEQ ID NO: 129 (protein)
# chain: B1 chain with L44S, S193N
# B3: trypsin variant SEQ ID NO: 76 (protein)
# chain: B1 chain with L44S, G78E
# B4: trypsin variant SEQ ID NO: 68 (protein)
# chain: B1 chain with L44S, Y131D
# B5: trypsin variant SEQ ID NO: 62 (protein)
# chain: B1 chain with L44S, Y131V
# B6: trypsin variant SEQ ID NO: 128 (protein)
# chain: B1 chain with L44S, Y131P
# B7: trypsin variant SEQ ID NO: 70 (protein)
# chain: B1 chain with L44S, S193Y
# B8: trypsin variant SEQ ID NO: 67 (protein)
# chain: B1 chain with L44S, Y131Q
# B9: trypsin variant SEQ ID NO: 127 (protein)
# chain: B1 chain with L44Y
# B10: trypsin variant SEQ ID NO: 126 (protein)
# chain: B1 chain with R24E, L44S
# B11: trypsin variant SEQ ID NO: 122 (protein)
# chain: B1 chain with L44S, K170F
# B12: trypsin variant SEQ ID NO: 21 (protein)
# chain: B1 chain with L44S, K125H
# B13: trypsin variant SEQ ID NO: 130 (protein)
# chain: B1 chain with L44S, S193C
# B14: trypsin variant SEQ ID NO: 23 (protein)
# chain: B1 chain with L44S, K125Q
# B15: trypsin variant SEQ ID NO: 59 (protein)
# chain: B1 chain with L44S, R107G
# B16: trypsin variant SEQ ID NO: 120 (protein)
# chain: B1 chain with L44S, K125P
# B17: trypsin variant SEQ ID NO: 75 (protein)
# chain: B1 chain with L44S, G78Y
# B18: trypsin variant SEQ ID NO: 12 (protein)
# chain: B1 chain with L44S, R99D
# B19: trypsin variant SEQ ID NO: 20 (protein)
# chain: B1 chain with L44S, K125E
# B20: trypsin variant SEQ ID NO: 65 (protein)
# chain: B1 chain with L44S, Y131G
# B21: trypsin variant SEQ ID NO: 114 (protein)
# chain: B1 chain with L44P, D56H, R99A, R107T, K125A, K170A, A172S
# B22: trypsin variant SEQ ID NO: 60 (protein)
# chain: B1 chain with L44S, R107S
# B23: trypsin variant SEQ ID NO: 64 (protein)
# chain: B1 chain with L44S, Y131W
# B24: trypsin variant SEQ ID NO: 63 (protein)
# chain: B1 chain with L44S, Y131I
# B25: trypsin variant SEQ ID NO: 31 (protein)
# chain: B1 chain with R24Q, L44S
# B26: trypsin variant SEQ ID NO: 123 (protein)
# chain: B1 chain with R24G, L44S
# B27: trypsin variant SEQ ID NO: 29 (protein)
# chain: B1 chain with R24L, L44S
# B28: trypsin variant SEQ ID NO: 72 (protein)
# chain: B1 chain with L44S, G78S
# B29: trypsin variant SEQ ID NO: 112 (protein)
# chain: B1 chain with L44P, D56H, G78P, R99H, R107T, K125S, K170A, A172S
# B30: trypsin variant SEQ ID NO: 28 (protein)
# chain: B1 chain with R24V, L44S
# B31: trypsin variant SEQ ID NO: 71 (protein)
# chain: B1 chain with L44S, S193T
# B32: trypsin variant SEQ ID NO: 26 (protein)
# chain: B1 chain with L44S, K170G
# B33: trypsin variant SEQ ID NO: 55 (protein)
# chain: B1 chain with L44S, D56W
# B34: trypsin variant SEQ ID NO: 66 (protein)
# chain: B1 chain with L44S, Y131S
# B35: trypsin variant SEQ ID NO: 16 (protein)
# chain: B1 chain with L44S, K125G
# B36: trypsin variant SEQ ID NO: 124 (protein)
# chain: B1 chain with L44S, Y131K
# B37: trypsin variant SEQ ID NO: 22 (protein)
# chain: B1 chain with L44S, K125L
# B38: trypsin variant SEQ ID NO: 121 (protein)
# chain: B1 chain with L44S, K170I
# B39: trypsin variant SEQ ID NO: 27 (protein)
# chain: B1 chain with L44S, K170N
# B40: trypsin variant SEQ ID NO: 17 (protein)
# chain: B1 chain with L44S, K125Y
# B41: trypsin variant SEQ ID NO: 125 (protein)
# chain: B1 chain with R24D, L44S
# B42: trypsin variant SEQ ID NO: 69 (protein)
# chain: B1 chain with L44S, S193F
# B43: trypsin variant SEQ ID NO: 8 (protein)
# chain: B1 chain with L44S, R99G
# B44: trypsin variant SEQ ID NO: 58 (protein)
# chain: B1 chain with L44S, R107P
# B45: trypsin variant SEQ ID NO: 7 (protein)
# chain: B1 chain with L44S, R99W
# B46: trypsin variant SEQ ID NO: 61 (protein)
# chain: B1 chain with L44S, R107D
# B47: trypsin variant SEQ ID NO: 30 (protein)
# chain: B1 chain with R24S, L44S
# B48: trypsin variant SEQ ID NO: 15 (protein)
# chain: B1 chain with L44S, K125A
# B49: trypsin variant SEQ ID NO: 54 (protein)
# chain: B1 chain with L44S, D56A
# B50: trypsin variant SEQ ID NO: 13 (protein)
# chain: B1 chain with L44S, R99E
# Target: pre-pro-human insulin
Protein,Activity PPI cleavage,Selectivity [%]
B1,yes,>90
B2,yes,44.8
B3,yes,>90
B4,yes,>70
B5,yes,>90
B6,yes,57.1
B7,yes,>70
B8,yes,>90
B9,yes,20.5
B10,yes,7.2
B11,yes,59.4
B12,yes,>90
B13,yes,33.8
B14,yes,>90
B15,yes,>90
B16,yes,1.4
B17,yes,>90
B18,yes,>90
B19,yes,>90
B20,yes,>80
B21,yes,>90
B22,yes,>90
B23,yes,>90
B24,yes,>90
B25,yes,>62.1

Protein,Activity PPI cleavage,Selectivity [%]
B26,yes,60.7
B27,yes,>90
B28,yes,>90
B29,yes,>90
B30,yes,>90
B31,yes,>62.1
B32,yes,>80
B33,yes,>90
B34,yes,>90
B35,yes,>90
B36,yes,27.6
B37,yes,>90
B38,yes,4.6
B39,yes,>80
B40,yes,>80
B41,yes,12.2
B42,yes,>70
B43,yes,>90
B44,yes,>90
B45,yes,>90
B46,yes,>80
B47,yes,>70
B48,yes,>90
B49,yes,>90
B50,yes,>90

# From patent publication US20230303994
